How the values were obtained:
[1] = biological target: recombinant TGF-β1 (rat TGFβ1 sequence expressed in HEK cells, heat-activated) (rat) (UniProt P17246); test: cell-based or functional assay
[2] = biological target: TGF-β present in IFN-β-treated mouse 2D2-FIG splenocyte cultures (endogenous) (mouse); test: cell-based or functional assay

Chain of UniProt P17246 (P17246 279-390 limits assumed): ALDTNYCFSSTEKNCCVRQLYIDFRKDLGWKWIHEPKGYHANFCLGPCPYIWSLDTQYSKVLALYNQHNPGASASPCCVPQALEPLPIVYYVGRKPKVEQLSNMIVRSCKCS

inhibition of TGF-β-induced FOXP3+ Treg induction (GFP) in MOG35-55-stimulated 2D2-FIG splenocytes, 7 days [1]: 1 µg/mL
inhibition of IFN-β-induced FOXP3+ Treg induction (GFP) in MOG35-55-stimulated 2D2-FIG splenocytes, 7 days [2]: 1 µg/mL
B1: 1D11.16.8 anti-mouse-TGF-β1/2/3 mouse IgG1 mAb (antibody, from another filing, V domains shown)
VH: QVQLQQSGPELVRPGASVKLSCKASGYIFITYWMNWVKQRPGQGLEWIGQIFPASGSTNYNEMFEGKATLTVDTSSSTAYMQLSSLTSEDSAVYYCARGDGNYALDAMDYWGQGTSVTVSS
VL: DIVLTQSPASLAVSLGQRATISCRASESVDSYGNSFMHWYQQKSGQPPKLLIYLASNLESGVPARFSGSGSRTDFTLTIDPVEADDAATYYCQQNNEDPLTFGAGTKLEIK
